32P incorporated into purified F-AC2 after PMA treatment of the cells data for 1 substance are collected here from US6034071.

This experiment deals with FLAG epitope tagged adenylyl cyclase 2 (rat).

Regarding protein kinase C (enzyme), the 32P incorporated into purified F-AC2 after PMA treatment of the cells stood at 3 fold.
